Laboratory results published in the DeepSol protein solubility set.

experiment: soluble on expression in E. coli; label from the status in PepcDB or PDB records

**Q.** With “MSKLRFRVVETAFKKKAVEVATPAERPSEYFGKYVFNKEKMFKYLPSKVYNALIDAIDNGAPLDRSIADEVAAGMKKWAVEMGVTHYTHWFAPLTEGTAEKHDAFVEHDGKGGMMEEFTGKLLVQQEPDASSFPNGGIRNTFEARGYSAWDPSSPAFIVDDTLCIPTVFIAYTGEALDYKAPLLKALRAVDKAATAVCHYFNPEVKKVVAYLGWEQEYFLVDEGLYAARPDLLMTGRTLMGHDSAKNQQLEDHYFGAIPTRVAAFMKDLEIEALKLGIPVKTRHNEVAPNQFELAPIFEECNLANDHNLLIMSLMRKVSRRHGFRVLLHEKPFKGVNGSGKHNNWSLGTDTGILLMGPGKTPEDNLRFVTFVVNTLMAVYRHNGLLKASISSATNAHRLGANEAPPAIISSFLGKQLSQVLDHIENSTKDDLINLSGKQGMKLDIPQIPELLIDNTDRNRTSPFAFTGNRFEFRAVGSEANCASAMIALNAAVAEQLMKFKKDVDALIEKGEPKVSAILEVIRGYIKECKAIHFDGNGYSDEWKVEAARRGLDCETSVPVIFDNYLKPETIAMFEAIGVMTKKELEARNEVKWETYTKKIQIEARVLGDLAMNHIIPVATQYQTDLINNVYKMQSLFPADKAARLSAKNLELIEEIADRTAFIKEHVDAMIEARKVANKIESEREKAIAYHDTIVPALEEIRYHIDKLELIVDNQMWTLPKYRELLFVR” as the sequence, how does the “soluble on expression in E. coli” value read?
**A.** soluble

**Q.** With “MSKLVYLLLMIFFLNPAWANTHYHQHPVSPLANALRTGTDTNGNALYLCRAKLFNSIQPGKTWAGYGRCNVPYGGKEYVLSQFTIPNQNEFGRYSWEPNVEHALLMGKDTNGNPLFVCQSNFNGSIQPGKTWPGYSHCNISYGGREIITDNYRILSRPTEIIVRTQPPVHRHPSQNRHYHYLEHHHHHH” as the sequence, how does the “soluble on expression in E. coli” value read?
**A.** soluble

**Q.** Which “soluble on expression in E. coli” value does the source give for “MSKNLTITHESTFNGNKVYIDKEGLVVEYLEGIESVLENALEQYARLFIVRVDLNLPTDFRGDDSAVMTRFFRSLKSQVAAYRRRSARLNRKPYRETTIRYVWAKECDTSTSSHYHVALIFDRNIFRSLGDFGEYQQSLANRIRNAWKRSVEAMYSGKEKPAIHFSKQGQYHLLRNSEEFGEVFQSVFYRLSYLAKRRTKHFGKRMNNFGHSHK” here?
**A.** not soluble

**Q.** Which “soluble on expression in E. coli” value does the source give for “MSKQQEQDTPSFGEIRQRLQAGEDFDLAHRLQEREYEMYYNHNRNVNGTIVGDRKKTREEQIAEDEHAASLRRLGHAERSMSDEEYARQLQEEMDRLDASIQMDKEAQLREDARMAWLLQQESSATPAPSRHSGDLISFEDQPQQSSNTTTSSSCQSANNS” here?
**A.** not soluble

**Q.** Which “soluble on expression in E. coli” value does the source give for “MSKRNTPQRRHNILALLNEQGEVSVDELAKRFETSEVTIRKDLAALESNGLLLRRYGGAITMPQELVSDIGQPVSLYKQAIARAAVQRIREHARIIIDSGSTTAAMIPELGLQPGLVVMTNSLNVANALSELEHEPVLLMTGGTWDPHSESFQGQVAEQVLRSYDFDQLFIGADGIDLARGTTTFNELLGLSRVMAEVAREVVVMVESDKIGRKIPNLELPWSSVHTLITDDRLPLEVRDQIQARGITLICAAVSLEHHHHHH” here?
**A.** soluble

**Q.** With “MSKRYAVVLAAGQGTRMKSKLYKVLHPVCGKPMVEHVVDQISTLNVDKVVTIVGHGAEKVQEHLAGKSEFVKQDEQLGTAHAVLQAKAELAGKDGVTLVVCGDTPLIEASTMEALLKYHHEKRAKATILTTVIEDPTGYGRIIRDDLGIVEKIVEHKDATEKEQRISEINTGTYCFDNKALFEALENVSNDNVQGEYYLPDVIKILKDSDEVVAAYRMESFEESLGVNDRIALAEASKLMQRRINENHMRNGVTLVNPESTYIDIDVKIGQDTVIEPGVMLRGKTVIGDDCVVTSGSEIVNSVIGERVHVRTSSIFESKVGDDVQIGPYAHLRPESDIHDHVKIGNYVETKKAVVGEGTKLPHFIYMGDAEIGKNVNVGCGSIAVNYDGKNKAKTIIGDNVFVGCNSNLIAPVKVGDRAFIAAGSTITKDVPEDALGIARAKQDNKLGYAKHLNHSK” as the sequence, how does the “soluble on expression in E. coli” value read?
**A.** not soluble

**Q.** With “MSKSDLRMKSNADKVIANLKKMTPIAEKEGAAMVNDSLAKIYQLIVPMTPIKSGDLRRGYRIIKARKLSSGRIVGALINNEKYFRYVNDGHRTKNGGFVKGRFMLQKSNKLANATYIPKRFKQMAIIIVKKG” as the sequence, how does the “soluble on expression in E. coli” value read?
**A.** not soluble

**Q.** For “MSKTFKDYGTGSGKDVIADEKPFSILLMGVDTGSSERTSKWEGNSDSMILVTVNPKTKKTTMTSLERDILVKLSGSKTNDQTGYDAKLNAAYAAGGAKMAIMTVQDMLDIKIDKYVQINMEGLVQLVDAVGGITVTNHFDFPISIEEHEPEFTASVEPGTHKINGEQALVYSRMRYDDPDGDYGRQKRQREVISKVLKKILALDSVSKYRKILSAVSKNMQTNIEISSSTIPKLLGYSDALKSIRTYQLKGEGTTIDGGSYQLVTSKELLKAQNRIKGQLGLKKSTAENLKTTASLYENFYGGDTSIYDSSSSASDYSSSGNYSGSSSDYGSSSSYGSNSSSGSSSDYSGQNSYNQGNYQQPAAGTGIGNLEHHHHHH”, which “soluble on expression in E. coli” value is on record?
**A.** soluble

**Q.** With “MSKYKIFVDGAVGTTGLGIFERLRAAKDIELLTLADEQRKDLKARLANVAAADLTLLCLPDTASKQLVLHAPPSAKICDTSTAHRVDPAWVYGFAELSGQFNNIQTATRVAIPGCHATGYIALLRPLIERHYLNADYPFTCHSLTGYSGGGKAMIADYQAPIRDDKFKAPRMYGLTLHHKHLAEMCAFTGSSNPPIFTPIVADYYSGMLVNVPLPLAAFTQEANDGEKISGILADYYREASLINVHYVNDLPTDGMVAANSLAGKDRLDIFVYANQTQVVLSAIFDNLGKGASGAAIQCMNIMLGRDQLADLHI” as the sequence, how does the “soluble on expression in E. coli” value read?
**A.** not soluble

**Q.** With “MSLAAGFAPLADIPVGPDYVIGPGDRIILNLWGSAEGTHELEVNRSGEIVLPRVGSVKVWGITFERLPEVLKTHLSKIYKNFDLNVTMGKLRVIKVYVVGEVKMPGDYNLSPLSTLINALAASGGPLKTGTLRNIKIKRGGKVVETVDLYDFFLKGDKGKDIRLQPGDTIFVPVIGRVAGIAGNVKRPAIYELKDEKNLGDLVELAEGFLPTGYLQRVQITRVDAHDKRMVADFNIDPKGAGEGHHHHHH” as the sequence, how does the “soluble on expression in E. coli” value read?
**A.** not soluble

**Q.** Which “soluble on expression in E. coli” value does the source give for “MSLAARQTVTDVDSFSKELMTASPDLLGSMVKAFAEALMGAEVDGICNAEYGEISPERVNRRNGYRAREWDTRAGTIELAVPKLRQGSYFPEWLLTRRRRAEQALISVVATSYLLGVSTRRVDKLVEQLGVAHISKSQVSVLAKHLDTQVEAFRSRPLDAGPYRFVQADALTMKVREDGRVINVHCLLAVGVNGDGHREILGLDVVSSEDGAGWLAFFRGLVARGLSGVRLVTSDAHRGLVNAIGSTLPGASWQRCRTHYLRDLLTMTPKSSQPWVATLVRTVFDQADANEVGGQFDRVTEALSEKLPKAADHLSGAKADLLAFTTYPREVWRQIWSSNPQERLNKEIRRRTDVVGIFPDRDAIIRLVGAVLAEQHDEWIETHRYFGLEILAKVDATNKKSDTPEIGVTEGHHHHHH” here?
**A.** soluble

**Q.** With “MSLADLFASPDDAAAGGAPDTAPLADRLRPRTLGDVVGQEHLTGPDGAIGRMVAAGRLSSIIFWGPPGTGKTTISRLLAHAVGMRFEPISAVFSGVADLKKVFAAAKDHARHGEKTLLFVDEIHRFNRAQQDSFLPFVENGTVTLVGATTENPSFELNAALLSRAQVLILRRLDAAALEQLLDRAEGLMERPLPLDPAAREALLASADGDGRFLLNQVETLYAIDIPEPLDPAGLSALLHRRVAVYDKDREGHYNLISALHKSLRGSDPQAALYYLARMLTAGEEPLYVLRRLVRFATEDIGLADPQAVVQCLAAKDAYDFLGSPEGELAIVQACLYCATAPKSNAAYMAMKASFRSARETGSLMPPMNIVNAPTKLMKQVGYGKNYQYDHDAAEGFSGANYWPEEMEAQTFYAPTDRGFEARVAERMAYWDRLRAERGEGHHHHHH” as the sequence, how does the “soluble on expression in E. coli” value read?
**A.** soluble

**Q.** With “MSLAELNFKAIEEKWQKRWLEAKIFEPNIRDKPKEKKFYITVAFPYLSGHLHVGHARTYTIPDVIARFKRMQGYNVLFPMAWHITGSPIVGIAERIKNRDPKTIWIYRDVYKVPEEILWTFEDPINIVKYFMKAAKETFIRAGFSVDWSREFYTTSLFPPFSKFIEWQFWKLKEKGYIVKGAHRVRWDPVVGTPLGDHDLMEGEDVPILDYIIIKFELRENGEVIYLPAATLRPETVYGVTNMWVNPNATYVKAKVRRKDKEETWIVSKEAAYKLSFQDREIEVIEEFKGEKLIGKYVRNPVSGDEVIILPAEFVDPDNATGVVMSVPAHAPFDHVALEDLKRETEILEKYDIDPRIVENITYISLIKLEGYGDFPAVEEVNKLGIKSQKDKEKLEQATKTIYKAEYHKGIFKVPPYEGKPVQEVKEAIAKEMLEKGIAEIMYEFAEKNVISRFGNRAVIKIIHDQWFIDYGNPEWKEKARKALERMKILPETRRAQFEAIIDWLDKKACARKIGLGTPLPWDPEWVIESLSDSTIYMAYYTISRHINKLRQEGKLDPEKLTPEFFDYIFLEEFSEDKEKELEKKTGIPAEIIHEMKEEFEYWYPLDWRCSGKDLIPNHLTFFIFNHVAIFREEHWPKGIAVNGFGTLEGQKMSKSKGNVLNFIDAIEENGADVVRLYIMSLAEHDSDFDWRRKEVGKLRKQIERFYELISQFAEYEVKGNVELKDIDRWMLHRLNKAIKETTNALEEFRTRTAVQWAFYSIMNDLRWYLRRTEGRDDEAKRYVLRTLADVWVRLMAPFTPHICEELWEKLGGEGFVSLAKWPEPVEEWWNETIEAEEEFIRSVMEDIKEIIEVAKIENAKRAYIYTAEDWKWKVAEVVSEKRDFKSSMEELMKDSEIRKHGKEVAKIVQKLIKERTFDVKRINEEKALREAKEFMEKELGIEIIINPTEDKGGKKKQAMPLKPAIFIEEGHHHHHH” as the sequence, how does the “soluble on expression in E. coli” value read?
**A.** not soluble

**Q.** Which “soluble on expression in E. coli” value does the source give for “MSLAEPIESGKQYVELTSAVPVAVPGKIEVIELFWYGCPHCYAFEPTINPWVEKLPSDVNFVRIPAMFGGPWDAHGQLFITLDTMGVEHKVHAAVFEAIQKGGKRLTDKNDMADFVATQGVNKDDFLKTFDSFAVKGKIAQYKELAKKYEVTGVPTMIVNGKYRFDLGSAGGPEKTLQVADQLIDKERAAAKAEGHHHHHH” here?
**A.** soluble

**Q.** Which “soluble on expression in E. coli” value does the source give for “MSLAEPLTVSPELTANYAYFFDLDGTLAEIKPHPDQVVVPHKILQLLDRLAAHNAGALALISGRSMTELDALAKPFRFPLAGVHGAERRDISGKTHIVRLPEAVVREVEALLRSTLAALPGTELETKGMAFALHYRQAPEHEAALLALAQHVTQHWPQLALQPGKCVVEIKPKGTNKGEAIAAFMQEAPFTGRIPVFVGDDLTDEAGFGVVNHAGGISVKVGVGATQAAWRLESVPDVWRWLEQINYPQQEQQVMNNRRDGYESFSRSIEGHHHHHH” here?
**A.** soluble

**Q.** For “MSLAEQKPGEGQKTAIKIGVMIDLSGPLTTYGNSIKNTLEIAKEDINAYLEEKGLPYTVEFYVEDTKVDPKIALEKIQSLHSKGINLVIGPMGSGEVSNIKGYVQSNKIIIISPSSTLLPSLLGITKPEDKKYIFRFVGTDDLQTDAITAELKDLGIKAVIITYTGNDWGKGLYETIKPKLDAAGIEIVGEPVEYPSPPPADFSPYIATLESKLNDALQKYDASEVAVVAFSYEEAATMLAQTKDDSPLLNVLWLGCDGTALSDKMLEVCDKASKVRMLSTLFESKGEAYEQLAKKYKERGFGDSPYQYALNAYDAAWVLVLSYIEVVKEKGSYDPDAMNAKIPEVTEKYSKGEYGVKPVSGYIKLNEWNDRASGDYAIYEVTQDCKWQTAGIWKFTENKIEWLEGHHHHHH”, which “soluble on expression in E. coli” value is on record?
**A.** soluble

**Q.** Which “soluble on expression in E. coli” value does the source give for “MSLAFNYDEYLRVDKMPTQWCWGCGDGVVLKCIIRAIEKLGWNMDDVCLVSGIGCSGRMSSYVNCNTVHTTHGRAIAYATGIKLANPSKHVIVVSGDGDTLAIGGNHTIHGCRRNIDLTHIVINNFIYGLTNSQTSPTTPKGFYTVTAQFGNIDPNFDACELTKAAGASFVARGNVIEANKLENLIYKALAHKGYSFVDVFSNCHINLGRKNKMGEAVAMLDWIKNRVVDKAKFESMDFEERKDKFPTGILHEDNSQPEYCHAYEEVRRAAKEKRMVDLGALKEGHHHHHH” here?
**A.** not soluble
